Measurements: US20160208003A1 (AFFITECH RESEARCH, published 2016)
Values joined by “and” are separate entries in the source; they are usually repeats but may differ in a detail not shown here. Identical values can stand only once.

T1: human CC chemokine receptor 4 (CCR4) (human, UniProt P51679 1-360)
T1 construct: whole, on cells; Always presented on cells; also called CD194; human CCR4
T1 sequence (looked up): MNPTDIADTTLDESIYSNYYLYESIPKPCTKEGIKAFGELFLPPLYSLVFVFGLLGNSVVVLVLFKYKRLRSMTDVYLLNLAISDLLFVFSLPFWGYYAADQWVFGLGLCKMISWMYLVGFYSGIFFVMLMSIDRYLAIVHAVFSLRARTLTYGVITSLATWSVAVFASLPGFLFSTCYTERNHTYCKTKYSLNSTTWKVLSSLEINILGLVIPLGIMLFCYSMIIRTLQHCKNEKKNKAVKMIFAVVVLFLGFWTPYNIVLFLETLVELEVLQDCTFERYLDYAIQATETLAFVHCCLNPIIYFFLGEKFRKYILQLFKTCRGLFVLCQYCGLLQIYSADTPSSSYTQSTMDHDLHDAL


Columns and labels:
[1] = biological target: T1, human CC chemokine receptor 4 (CCR4); experiment: calculated from the IC50; CCRF-CEM cells, competitor biotinylated MDC
Protocol: (§1) The competition binding assays were performed with biotinylated MDC or biotinylated TARC on DT-40-CCR4+ and CCRF-CEM cells. DT40 and CCRF-CEM cells were cultured as described in Example 2. TARC and MDC were biotinylated using standard procedures. The biotinylation process causes some losses, so the concentrations of biotinylated MDC and TARC recited herein are approximate.
(§2) The cells were harvested from culture flasks, washed 2 times with PBS (400×g, 5 min, 4° C.) and resuspended in PBS containing 0.2% BSA and 0.09% NaN3. 1×10^5 cells per well were aliquoted into V-shaped 96-well plates (Greiner Bio-One, Frikenhausen, Germany). Cells were centrifuged (400×g, 5 min, 4° C.) and resuspended in 50 μl IgG, single chain or unlabeled ligand (1:10 dilution series starting on 100/500/26, 4 μg/ml) mixed with a fixed concentration of biotinylated ligand (10 or 20 nM, see legend to FIG. 24). The cells were incubated for 2 hours at 4° C. and mixed with a pipette every 45 min. The cells were washed three times with 150 μl PBS with 0.2% BSA and 0.09% NaN3 and stained with 3 μg/ml streptavidin PE (BD Biosciences) for 45 minutes at 4° C. […] Apparent binding affinities (KD) were calculated according to the following equation derived from previously described methods (Kipriyanov et al, 1997b; Schodin & Kranz, 1993): […]

[2] = biological target: T1, human CC chemokine receptor 4 (CCR4); experiment: calculated from the IC50; DT-40-CCR4+ cells, competitor biotinylated MDC
Protocol: as §1, §2

[3] = biological target: T1, human CC chemokine receptor 4 (CCR4); experiment: flow cytometry competition on DT-40-CCR4+ cells; unlabelled MDC titrated, competitor biotinylated MDC (ca. 10 nM)
Protocol: as §1, §2

[4] = biological target: T1, human CC chemokine receptor 4 (CCR4); experiment: competition flow cytometry on CCRF-CEM cells: unlabelled competitor against ca. 20 nM biotinylated TARC, without BSA, streptavidin-PE [c]
Protocol: as §1, §2

[5] = biological target: T1, human CC chemokine receptor 4 (CCR4); experiment: competition flow cytometry on CCRF-CEM cells: unlabelled competitor against ca. 20 nM biotinylated TARC, with 1 % BSA, streptavidin-PE [d]
Protocol: as §1, §2

[6] = biological target: T1, human CC chemokine receptor 4 (CCR4); experiment: competition flow cytometry on DT-40-CCR4+ cells: unlabelled competitor against ca. 20 nM biotinylated TARC, without BSA, streptavidin-PE [a]
Protocol: as §1, §2

[7] = biological target: T1, human CC chemokine receptor 4 (CCR4); experiment: competition flow cytometry on DT-40-CCR4+ cells: unlabelled competitor against ca. 20 nM biotinylated TARC, with 1 % BSA, streptavidin-PE [b]
Protocol: as §1, §2

[8] = biological target: T1, human CC chemokine receptor 4 (CCR4); experiment: competition flow cytometry: unlabelled competitor against a fixed amount of biotinylated MDC; cell line not named on the sheet or in the legend
[9] = biological target: T1, human CC chemokine receptor 4 (CCR4); experiment: flow cytometry competition on CCRF-CEM cells; unlabelled TARC titrated, competitor biotinylated TARC (ca. 20 nM)
Protocol: as §1, §2

[10] = biological target: T1, human CC chemokine receptor 4 (CCR4); experiment: flow cytometry competition on DT-40-CCR4+ cells; unlabelled TARC titrated, competitor biotinylated TARC (ca. 20 nM)
Protocol: as §1, §2

[11] = biological target: T1, human CC chemokine receptor 4 (CCR4); experiment: competition flow cytometry: unlabelled competitor against a fixed amount of biotinylated TARC; cell line not named on the sheet or in the legend

| Binder | Kd [1] [nM] | Kd [2] [nM] | IC50 [3] [nM] | IC50 (read off the curve) [4] [nM] | IC50 (read off the curve) [5] [nM] | IC50 (read off the curve) [6] [nM] | IC50 (read off the curve) [7] [nM] | IC50 (read off the curve) [8] [nM] | IC50 [9] | IC50 [10] | IC50 (read off the curve) [11] [nM] |
| --- | --- | --- | --- | --- | --- | --- | --- | --- | --- | --- | --- |
| macrophage-derived chemokine (MDC) (ligand, UniProt O00626 25-93, looked up, also called CCL22; biotinylated MDC) GPYGANMEDSVCCRDYVRYRLPLRVVKHFYWTSDSCPRPGVVLLTFRDKEICADPRVPWVKMILNKLSQ | 0.18 | 0.19 | 10.8 | ~60 | ~7 | ~30 | ~30 | ~20 | – | – | – |
| thymus and activation regulated chemokine (TARC) (ligand, UniProt Q92583 24-94, looked up, also called CCL17; biotinylated TARC) ARGTNVGRECCLEYFKGAIPLRKLKTWYQTSEDCSRDAIVFVTVQGRAICSDPNNKRVKNAVKYLQSLERS | – | – | – | – | – | – | – | – | 43.4 nM and 31.8 nM | 40.9 nM and 34.6 nM | ~0.3 |
